{
  "source": "paper PMC3033579",
  "key": {"SSB": {"target": "T1, SSB (Bacillus subtilis, UniProt P37455 1-172)", "T1 sequence": "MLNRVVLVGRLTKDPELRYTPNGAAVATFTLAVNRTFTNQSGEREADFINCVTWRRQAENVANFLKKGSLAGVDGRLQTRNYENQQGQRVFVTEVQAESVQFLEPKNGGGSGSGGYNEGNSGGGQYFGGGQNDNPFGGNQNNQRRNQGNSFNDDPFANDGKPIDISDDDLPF", "experiment": "EMSA"}, "DnaD": {"target": "T2, DnaD (Bacillus subtilis, UniProt P39787 1-232)", "T2 sequence": "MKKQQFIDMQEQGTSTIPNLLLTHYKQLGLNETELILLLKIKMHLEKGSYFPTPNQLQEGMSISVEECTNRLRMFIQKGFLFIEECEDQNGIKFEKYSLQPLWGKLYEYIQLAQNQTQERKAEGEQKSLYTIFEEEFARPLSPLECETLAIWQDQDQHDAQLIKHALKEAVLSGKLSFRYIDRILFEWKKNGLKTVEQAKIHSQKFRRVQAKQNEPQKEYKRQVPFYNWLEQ", "experiment": "EMSA"}},
  "data": [
    {"binder": "TTACACAGTAACTCATATGCTTCGCTATTACGCC (ssDNA)", "note": "[34mer oligonucleotide]", "values": [
      {"measurement": "binding signal", "setting": "SSB", "result": "600 fold higher affinity than Cd and DnaD"},
      {"measurement": "binding signal", "setting": "DnaD", "result": "600 fold lower affinity than SSB"}
    ]}
  ]
}
